Measurements as given in US20200270301A1 (UBIPROTEIN, published 2020).

Biological target: T1, HA-ubiquitin (expressed from pMT123-HA-ubiquitin) (UniProt P0CG48 1-76)
T1 construct: Co-expressed in HEK 293T cells and detected with anti-HA after anti-myc immunoprecipitation; It attaches covalently (isopeptide bond, polyubiquitin chains); P0CG48 is the polyubiquitin-C precursor; a single ubiquitin unit is 76 residues; not shown: HA tag of the pMT123-HA-ubiquitin plasmid
Assay: covalent ubiquitination in HEK 293T cells: anti-myc IP, anti-HA Western blot

B1: myc-EGF WT (expressed from pcDNA3-myc-EGF WT) (ligand)
chain: NSDSECPLSHDGYCLHDGVCMYIEALDKYACNCVVGYIGERCQYRDLKWWELR
modifications: not fully specified
notes: Expressed inside HEK 293T cells; also called human EGF; not shown: myc tag of the pcDNA3-myc vector
Does B1 bind?
Result: binds
